Reference: patent US20150147318A1 (ZOETIS SERVICES, published 2015)

B1: LTM construct 112 (HC Y101W, G103A; LC D28S, NH31HN, K92D) (antibody, V domains shown)
VH: EVQLVESGGDLARPGGSLKLSCVVSGFSLIGYDINWVRQAPGKGLQWVTMIWGDGTTDYNSALKSRFTVSRDNAMNTVYLQMNSLRVEDTAVYYCARGGYWYATSYYFDYWGQGTLVTVSS
VL: DIVMTQTPLSLSVSPGETASISCRASQSISHNLNWFRQKPGQSPQRLIYYISRFHSGVPDRFSGSGSGTDFTLRISRVEADDTGVYYCQQSDTLPYTFGAGTKLEIK
notes: Point mutant of canE3M65 as full IgG
B2: LTM construct 111 (HC Y101W, G103A; LC *D28S, NH31HN, S91Y) (antibody, V domains shown)
VH: EVQLVESGGDLARPGGSLKLSCVVSGFSLIGYDINWVRQAPGKGLQWVTMIWGDGTTDYNSALKSRFTVSRDNAMNTVYLQMNSLRVEDTAVYYCARGGYWYATSYYFDYWGQGTLVTVSS
VL: DIVMTQTPLSLSVSPGETASISCRASQSISHNLNWFRQKPGQSPQRLIYYISRFHSGVPDRFSGSGSGTDFTLRISRVEADDTGVYYCQQYKTLPYTFGAGTKLEIK
notes: The '*' is not explained
B3: LTM construct 110 (HC Y101W, G103A; LC K92D) (antibody, V domains shown)
VH: EVQLVESGGDLARPGGSLKLSCVVSGFSLIGYDINWVRQAPGKGLQWVTMIWGDGTTDYNSALKSRFTVSRDNAMNTVYLQMNSLRVEDTAVYYCARGGYWYATSYYFDYWGQGTLVTVSS
VL: DIVMTQTPLSLSVSPGETASISCRASQDISNHLNWFRQKPGQSPQRLIYYISRFHSGVPDRFSGSGSGTDFTLRISRVEADDTGVYYCQQSDTLPYTFGAGTKLEIK
notes: as for B1
B4: LTM construct 32 (HC Y100W, LC D28S) (antibody, V domains shown)
VH: EVQLVESGGDLARPGGSLKLSCVVSGFSLIGYDINWVRQAPGKGLQWVTMIWGDGTTDYNSALKSRFTVSRDNAMNTVYLQMNSLRVEDTAVYYCARGGWYYGTSYYFDYWGQGTLVTVSS
VL: DIVMTQTPLSLSVSPGETASISCRASQSISNHLNWFRQKPGQSPQRLIYYISRFHSGVPDRFSGSGSGTDFTLRISRVEADDTGVYYCQQSKTLPYTFGAGTKLEIK
notes: Point mutant of canE3M65, converted into full IgG and expressed in HEK293; The canine constant regions are not restated
B5: LTM construct 39 (HC Y100W, LC D28S, S91Y) (antibody, V domains shown)
VH: EVQLVESGGDLARPGGSLKLSCVVSGFSLIGYDINWVRQAPGKGLQWVTMIWGDGTTDYNSALKSRFTVSRDNAMNTVYLQMNSLRVEDTAVYYCARGGWYYGTSYYFDYWGQGTLVTVSS
VL: DIVMTQTPLSLSVSPGETASISCRASQSISNHLNWFRQKPGQSPQRLIYYISRFHSGVPDRFSGSGSGTDFTLRISRVEADDTGVYYCQQYKTLPYTFGAGTKLEIK
notes: Point mutant of canE3M65 as full IgG; Constant regions are not restated
B6: LTM construct 33 (HC Y100W, LC *D28S, NH31HN) (antibody, V domains shown)
VH: EVQLVESGGDLARPGGSLKLSCVVSGFSLIGYDINWVRQAPGKGLQWVTMIWGDGTTDYNSALKSRFTVSRDNAMNTVYLQMNSLRVEDTAVYYCARGGWYYGTSYYFDYWGQGTLVTVSS
VL: DIVMTQTPLSLSVSPGETASISCRASQSISHNLNWFRQKPGQSPQRLIYYISRFHSGVPDRFSGSGSGTDFTLRISRVEADDTGVYYCQQSKTLPYTFGAGTKLEIK
notes: as for B1
B7: LTM construct 38 (HC Y100W, LC D28S, NH31HN, K92D) (antibody, V domains shown)
VH: EVQLVESGGDLARPGGSLKLSCVVSGFSLIGYDINWVRQAPGKGLQWVTMIWGDGTTDYNSALKSRFTVSRDNAMNTVYLQMNSLRVEDTAVYYCARGGWYYGTSYYFDYWGQGTLVTVSS
VL: DIVMTQTPLSLSVSPGETASISCRASQSISHNLNWFRQKPGQSPQRLIYYISRFHSGVPDRFSGSGSGTDFTLRISRVEADDTGVYYCQQSDTLPYTFGAGTKLEIK
notes: as for B5
B8: LTM construct 37 (HC Y100W, LC *D28S, NH31HN, S91Y) (antibody, V domains shown)
VH: EVQLVESGGDLARPGGSLKLSCVVSGFSLIGYDINWVRQAPGKGLQWVTMIWGDGTTDYNSALKSRFTVSRDNAMNTVYLQMNSLRVEDTAVYYCARGGWYYGTSYYFDYWGQGTLVTVSS
VL: DIVMTQTPLSLSVSPGETASISCRASQSISHNLNWFRQKPGQSPQRLIYYISRFHSGVPDRFSGSGSGTDFTLRISRVEADDTGVYYCQQYKTLPYTFGAGTKLEIK
notes: as for B1
B9: LTM construct 36 (HC Y100W, LC K92D) (antibody, V domains shown)
VH: EVQLVESGGDLARPGGSLKLSCVVSGFSLIGYDINWVRQAPGKGLQWVTMIWGDGTTDYNSALKSRFTVSRDNAMNTVYLQMNSLRVEDTAVYYCARGGWYYGTSYYFDYWGQGTLVTVSS
VL: DIVMTQTPLSLSVSPGETASISCRASQDISNHLNWFRQKPGQSPQRLIYYISRFHSGVPDRFSGSGSGTDFTLRISRVEADDTGVYYCQQSDTLPYTFGAGTKLEIK
notes: as for B5
B10: SSM-36 (LC SSM135LCR53S, HC SSM135HCG31E) (antibody, V domains shown)
VH: EVQLVESGGDLARPGGSLKLSCVVSGFSLIEYDINWVRQAPGKGLQWVTMIWGDGTTDYNSALKSRFTVSRDNAMNTVYLQMNSLRVEDTAVYYCARGGYYYATSYYFDYWGQGTLVTVSS
VL: DIVMTQTPLSLSVSPGETASISCRASQDISNNLNWFRQKPGQSPQRLIYYISSFHSGVPDRFSGSGSGTDFTLRISRVEADDTGVYYCQQSKTLPYTFGAGTKLEIK
notes: Both chains are built on the LTM135 template (HC G103A, LC H32N)
B11: SSM-3 (LC E3M, HC SSMwtHCG31E) (antibody, V domains shown)
VH: EVQLVESGGDLARPGGSLKLSCVVSGFSLIEYDINWVRQAPGKGLQWVTMIWGDGTTDYNSALKSRFTVSRDNAMNTVYLQMNSLRVEDTAVYYCARGGYYYGTSYYFDYWGQGTLVTVSS
VL: DIVMTQTPLSLSVSPGETASISCRASQDISNHLNWFRQKPGQSPQRLIYYISRFHSGVPDRFSGSGSGTDFTLRISRVEADDTGVYYCQQSKTLPYTFGAGTKLEIK
B12: SSM-19 (LC SSMwtLCR53S, HC SSMwtHCD54T, L63I) (antibody, V domains shown)
VH: EVQLVESGGDLARPGGSLKLSCVVSGFSLIGYDINWVRQAPGKGLQWVTMIWGTGTTDYNSAIKSRFTVSRDNAMNTVYLQMNSLRVEDTAVYYCARGGYYYGTSYYFDYWGQGTLVTVSS
VL: DIVMTQTPLSLSVSPGETASISCRASQDISNHLNWFRQKPGQSPQRLIYYISSFHSGVPDRFSGSGSGTDFTLRISRVEADDTGVYYCQQSKTLPYTFGAGTKLEIK
B13: SSM-22 (LC SSMwtLCR53S, HC SSMwtHCD54T, G31E) (antibody, V domains shown)
VH: EVQLVESGGDLARPGGSLKLSCVVSGFSLIEYDINWVRQAPGKGLQWVTMIWGTGTTDYNSALKSRFTVSRDNAMNTVYLQMNSLRVEDTAVYYCARGGYYYGTSYYFDYWGQGTLVTVSS
VL: DIVMTQTPLSLSVSPGETASISCRASQDISNHLNWFRQKPGQSPQRLIYYISSFHSGVPDRFSGSGSGTDFTLRISRVEADDTGVYYCQQSKTLPYTFGAGTKLEIK
B14: SSM-34 (LC SSM135LCR53S, HC135 (G103A)) (antibody, V domains shown)
VH: EVQLVESGGDLARPGGSLKLSCVVSGFSLIGYDINWVRQAPGKGLQWVTMIWGDGTTDYNSALKSRFTVSRDNAMNTVYLQMNSLRVEDTAVYYCARGGYYYATSYYFDYWGQGTLVTVSS
VL: DIVMTQTPLSLSVSPGETASISCRASQDISNNLNWFRQKPGQSPQRLIYYISSFHSGVPDRFSGSGSGTDFTLRISRVEADDTGVYYCQQSKTLPYTFGAGTKLEIK
notes: The light chain is the LTM135 template (E3M H32N) plus R53S
B15: SSM-17 (LC SSMwtLCR53S, HC SSMwtHCD54T) (antibody, V domains shown)
VH: EVQLVESGGDLARPGGSLKLSCVVSGFSLIGYDINWVRQAPGKGLQWVTMIWGTGTTDYNSALKSRFTVSRDNAMNTVYLQMNSLRVEDTAVYYCARGGYYYGTSYYFDYWGQGTLVTVSS
VL: DIVMTQTPLSLSVSPGETASISCRASQDISNHLNWFRQKPGQSPQRLIYYISSFHSGVPDRFSGSGSGTDFTLRISRVEADDTGVYYCQQSKTLPYTFGAGTKLEIK
B16: SSM-14 (LC SSMwtLCR53S, HC SSMwtHCG31E) (antibody, V domains shown)
VH: EVQLVESGGDLARPGGSLKLSCVVSGFSLIEYDINWVRQAPGKGLQWVTMIWGDGTTDYNSALKSRFTVSRDNAMNTVYLQMNSLRVEDTAVYYCARGGYYYGTSYYFDYWGQGTLVTVSS
VL: DIVMTQTPLSLSVSPGETASISCRASQDISNHLNWFRQKPGQSPQRLIYYISSFHSGVPDRFSGSGSGTDFTLRISRVEADDTGVYYCQQSKTLPYTFGAGTKLEIK
B17: SSM-8 (LC E3M, HC SSMwtHCD54T, L63I) (antibody, V domains shown)
VH: EVQLVESGGDLARPGGSLKLSCVVSGFSLIGYDINWVRQAPGKGLQWVTMIWGTGTTDYNSAIKSRFTVSRDNAMNTVYLQMNSLRVEDTAVYYCARGGYYYGTSYYFDYWGQGTLVTVSS
VL: DIVMTQTPLSLSVSPGETASISCRASQDISNHLNWFRQKPGQSPQRLIYYISRFHSGVPDRFSGSGSGTDFTLRISRVEADDTGVYYCQQSKTLPYTFGAGTKLEIK
B18: SSM-2 (LC E3M, HC SSMwtHCG31Q) (antibody, V domains shown)
VH: EVQLVESGGDLARPGGSLKLSCVVSGFSLIQYDINWVRQAPGKGLQWVTMIWGDGTTDYNSALKSRFTVSRDNAMNTVYLQMNSLRVEDTAVYYCARGGYYYGTSYYFDYWGQGTLVTVSS
VL: DIVMTQTPLSLSVSPGETASISCRASQDISNHLNWFRQKPGQSPQRLIYYISRFHSGVPDRFSGSGSGTDFTLRISRVEADDTGVYYCQQSKTLPYTFGAGTKLEIK
notes: IgG expressed in HEK293; constant regions are not restated
B19: SSM-13 (LC SSMwtLCR53S, HC SSMwtHCG31Q) (antibody, V domains shown)
VH: EVQLVESGGDLARPGGSLKLSCVVSGFSLIQYDINWVRQAPGKGLQWVTMIWGDGTTDYNSALKSRFTVSRDNAMNTVYLQMNSLRVEDTAVYYCARGGYYYGTSYYFDYWGQGTLVTVSS
VL: DIVMTQTPLSLSVSPGETASISCRASQDISNHLNWFRQKPGQSPQRLIYYISSFHSGVPDRFSGSGSGTDFTLRISRVEADDTGVYYCQQSKTLPYTFGAGTKLEIK

Target: T1, recombinant canine Nerve Growth Factor (Canis lupus familiaris NGF) (canine (Canis lupus familiaris), UniProt Q29074 110-229 (pig entry), limits assumed)
T1 construct: also called canine NGF; Dog NGF
T1 chain: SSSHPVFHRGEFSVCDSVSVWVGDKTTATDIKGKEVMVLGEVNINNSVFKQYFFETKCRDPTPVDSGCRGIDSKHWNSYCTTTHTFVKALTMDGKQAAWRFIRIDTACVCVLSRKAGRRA
Test: SPR, Biacore T100, dog NGF; run 11/29; comment 'Agg?'

Point of comparison: B2, Kd 0.0288 nM. Against it:
- B1 — 1.9-fold lower, 0.0152 nM
- B3 — 33-fold higher, 0.942 nM

Target: T1, recombinant canine Nerve Growth Factor …
Test: SPR, Biacore T100, dog NGF; run 11/22

Point of comparison: B7, Kd 2.15 nM. Against it:
- B4 — within 1.5-fold, 2.25 nM
- B8 — within 1.5-fold, 1.91 nM
- B9 — 2.6-fold higher, 5.5 nM

B5: no binding.
B6: no binding.

Target: T1, recombinant canine Nerve Growth Factor …
Test: SPR, Biacore T100, dog NGF; run 11/24; comment 'Agg?'

Point of comparison: B3, Kd 3.26 pM. Against it:
- B1 — 2-fold lower, 1.65 pM
- B2 — 45-fold higher, 146 pM

Target: T1, recombinant canine Nerve Growth Factor …
Test: SPR, 1:1 binding fit, canine NGF

Point of comparison: B14, Kd 3.08 nM. Against it:
- B10 — 13-fold higher, 40.2 nM
- B11 — 13-fold higher, 41.4 nM
- B12 — 12-fold higher, 37.4 nM
- B13 — 81-fold higher, 249 nM
- B15 — 22-fold higher, 69.1 nM
- B16 — 7.7-fold higher, 23.6 nM
- B17 — 14-fold higher, 41.8 nM
- B18 — 4.6-fold higher, 14.2 nM
- B19 — 100-fold higher, 311 nM

Point of comparison: B14, koff 0.000192 s⁻¹. Against it:
- B10 — 1.7-fold higher, 0.00033 s⁻¹
- B11 — within 1.5-fold, 0.000167 s⁻¹
- B12 — 8.5-fold higher, 0.00164 s⁻¹
- B13 — 1.5-fold higher, 0.000296 s⁻¹
- B15 — 7.3-fold higher, 0.0014 s⁻¹
- B16 — 42-fold higher, 0.00812 s⁻¹
- B17 — within 1.5-fold, 0.000173 s⁻¹
- B18 — 1.7-fold lower, 0.000114 s⁻¹
- B19 — 13-fold higher, 0.00241 s⁻¹

Point of comparison: B13, kon 1190 M⁻¹ s⁻¹. Against it:
- B10 — 6.9-fold higher, 8200 M⁻¹ s⁻¹
- B11 — 3.4-fold higher, 4040 M⁻¹ s⁻¹
- B12 — 37-fold higher, 43800 M⁻¹ s⁻¹
- B14 — 52-fold higher, 62400 M⁻¹ s⁻¹
- B15 — 17-fold higher, 20300 M⁻¹ s⁻¹
- B16 — 290-fold higher, 344000 M⁻¹ s⁻¹
- B17 — 3.5-fold higher, 4130 M⁻¹ s⁻¹
- B18 — 6.8-fold higher, 8080 M⁻¹ s⁻¹
- B19 — 6.5-fold higher, 7750 M⁻¹ s⁻¹
